Key:
[1] = target: HLA-A*24:02-… (human; Epstein Barr Virus); assay: HLA-peptide multimer staining and single-cell sorting of CD8+ T cells, paired TCR sequencing
Procedure: (§1) T cell lines were labelled with an allophycocyanin (APC)-conjugated HLA-peptide multimer (ProImmune Ltd., Oxford, UK) by incubation for 30 minutes at room temperature. Cells were then washed and incubated with Cy5.5-PerCP conjugated anti-human CD8 mAb (BioLegend, San Diego, Calif.) for 30 minutes at 4° C. Cells were washed, analyzed and sorted as single cells into 96-well PCR plates (Eppendorf, Hamburg, Germany) using the FACS Aria III flow cytometer (BD Biosciences).

[2] = target: HLA-A*11:01-… (human; Epstein Barr Virus); assay: as above
Procedure: as §1

Row | Binder | binding result [1] | binding result [2]
1 | TCR Clone 3 of Donor Y6W in Table 5 (TCR, V domains shown, also called Donor Y6W Clone 3) V domain 1: GENVEQHPSTLSVQEGDSAVIKCTYSDSASNYFPWYKQELGKGPQLIIDIRSNVGEKKDQRIAVTLNKTAKHFSLHITETQPEDSAVYFCAASEFQFYFGTGTSLTVIP V domain 2: DSGVTQTPKHLITATGQRVTLRCSPRSGDLSVYWYQQSLDQGLQFLIQYYNGEERAKGNILERFSAQQFPDLHSELNLSSLELGDSALYFCASSPGQRANTGELFFGEGSRLTVLE | binds | 
2 | TCR Clone 5 of Donor R7Z in Table 3 (TCR, V domains shown, also called Donor R7Z Clone 5) V domain 1: GIQVEQSPPDLILQEGANSTLRCNFSDSVNNLQWFHQNPWGQLINLFYIPSGTKQNGRLSATTVATERYSLLYISSSQTTDSGVYFCAVVGNNDMRFGAGTRLTVKP V domain 2: DSGVTQTPKHLITATGQRVTLRCSPRSGDLSVYWYQQSLDQGLQFLIQYYNGEERAKGNILERFSAQQFPDLHSELNLSSLELGDSALYFCASSVAPWYEQYFGPGTRLTVTE |  | binds
3 | TCR Clone 2 of Donor R7Z in Table 3 (TCR, V domains shown, also called Donor R7Z Clone 2) V domain 1: GIQVEQSPPDLILQEGANSTLRCNFSDSVNNLQWFHQNPWGQLINLFYIPSGTKQNGRLSATTVATERYSLLYISSSQTTDSGVYFCAVVINNDMRFGAGTRLTVKP V domain 2: DSGVTQTPKHLITATGQRVTLRCSPRSGDLSVYWYQQSLDQGLQFLIQYYNGEERAKGNILERFSAQQFPDLHSELNLSSLELGDSALYFCASSVAPFYEQYFGPGTRLTVTE |  | binds
4 | TCR Clone 1 of Donor B5F in Table 3 (TCR, V domains shown, also called Donor B5F Clone 1) V domain 1: GIQVEQSPPDLILQEGANSTLRCNFSDSVNNLQWFHQNPWGQLINLFYIPSGTKQNGRLSATTVATERYSLLYISSSQTTDSGVYFCAVLNNNDMRFGAGTRLTVKP V domain 2: DSGVTQTPKHLITATGQRVTLRCSPRSGDLSVYWYQQSLDQGLQFLIQYYNGEERAKGNILERFSAQQFPDLHSELNLSSLELGDSALYFCASSVSSWYEQFFGPGTRLTVLE |  | binds
5 | TCR Clone 1 of Donor R7Z in Table 3 (TCR, V domains shown, also called Donor R7Z Clone 1) V domain 1: KQEVTQIPAALSVPEGENLVLNCSFTDSAIYNLQWFRQDPGKGLTSLLLIQSSQREQTSGRLNASLDKSSGRSTLYIAASQPGDSATYLCAVWAGGTSYGKLTFGQGTILTVHP V domain 2: DVKVTQSSRYLVKRTGEKVFLECVQDMDHENMFWYRQDPGLGLRLIYFSYDVKMKEKGDIPEGYSVSREKKERFSLILESASTNQTSMYLCASSPAGRPGKPLHFGNGTRLTVTE |  | binds
6 | TCR Clone 3 of Donor R7Z in Table 3 (TCR, V domains shown, also called Donor R7Z Clone 3) V domain 1: AQSVAQPEDQVNVAEGNPLTVKCTYSVSGNPYLFWYVQYPNRGLQFLLKYITGDNLVKGSYGFEAEFNKSQTSFHLKKPSALVSDSALYFCAVREASGANNLFFGTGTRLTVIP V domain 2: SQTIHQWPATLVQPVGSPLSLECTVEGTSNPNLYWYRQAAGRGLQLLFYSVGIGQISSEVPQNLSASRPQDRQFILSSKKLLLSDSGFYLCAWSPQGNSPLHFGNGTRLTVTE |  | binds
7 | TCR Clone 1 of Donor A4T in Table 3 (TCR, V domains shown, also called Donor A4T Clone 1) V domain 1: DQQVKQNSPSLSVQEGRISILNCDYTNSMFDYFLWYKKYPAEGPTFLISISSIKDKNEDGRFTVFLNKSAKHLSLHIVPSQPGDSAVYFCAASGLVEGNTPLVFGKGTRLSVIA V domain 2: EAGVAQSPRYKIIEKRQSVAFWCNPISGHATLYWYQQILGQGPKLLIQFQNNGVVDDSQLPKDRFSAERLKGVDSTLKIQPAKLEDSAVYLCASSLFPGTGIHEQYFGPGTRLTVTE |  | binds
8 | TCR Clone 1 of Donor P6G in Table 3 (TCR, V domains shown, also called Donor P6G Clone 1) V domain 1: KQEVTQIPAALSVPEGENLVLNCSFTDSAIYNLQWFRQDPGKGLTSLLLIQSSQREQTSGRLNASLDKSSGRSTLYIAASQPGDSATYLCAVGGDDSGAGSYQLTFGKGTKLSVIP V domain 2: DSGVTQTPKHLITATGQRVTLRCSPRSGDLSVYWYQQSLDQGLQFLIQYYNGEERAKGNILERFSAQQFPDLHSELNLSSLELGDSALYFCASSRPEGIYNEQFFGPGTRLTVLE |  | binds
9 | TCR Clone 2 of Donor Y6W in Table 5 (TCR, V domains shown, also called Donor Y6W Clone 2) V domain 1: QKEVEQNSGPLSVPEGAIASLNCTYSDRGSQSFFWYRQYSGKSPELIMFIYSNGDKEDGRFTAQLNKASQYVSLLIRDSQPSDSATYLCAVNVGNTGFQKLVFGTGTRLLVSP V domain 2: SQTIHQWPATLVQPVGSPLSLECTVEGTSNPNLYWYRQAAGRGLQLLFYSVGIGQISSEVPQNLSASRPQDRQFILSSKKLLLSDSGFYLCACQWQGLGGELFFGEGSRLTVLE | binds | 
10 | TCR Clone 2 of Donor B5F in Table 3 (TCR, V domains shown, also called Donor B5F Clone 2) V domain 1: GESVGLHLPTLSVQEGDNSIINCAYSNSASDYFIWYKQESGKGPQFIIDIRSNMDKRQGQRVTVLLNKTVKHLSLQIAATQPGDSAVYFCAETPGGYQKVTFGTGTKLQVIP V domain 2: EAQVTQNPRYLITVTGKKLTVTCSQNMNHEYMSWYRQDPGLGLRQIYYSMNVEVTDKGDVPEGYKVSRKEKRNFPLILESPSPNQTSLYFCASSLWTSNSPLHFGNGTRLTVTE |  | binds
11 | TCR Clone 1 of Donor B33 in Table 5 (TCR, V domains shown, also called Donor B33 Clone 1) V domain 1: GQQVMQIPQYQHVQEGEDFTTYCNSSTTLSNIQWYKQRPGGHPVFLIQLVKSGEVKKQKRLTFQFGEAKKNSSLHITATQTTDVGTYFCAGPGTGAGSYQLTFGKGTKLSVIP V domain 2: DVKVTQSSRYLVKRTGEKVFLECVQDMDHENMFWYRQDPGLGLRLIYFSYDVKMKEKGDIPEGYSVSREKKERFSLILESASTNQTSMYLCASIKSSGYNEQFFGPGTRLTVLE | binds | 
12 | TCR Clone 1 of Donor B5F in Table 5 (TCR, V domains shown, also called Donor B5F Clone 1) V domain 1: GQQVMQIPQYQHVQEGEDFTTYCNSSTTLSNIQWYKQRPGGHPVFLIQLVKSGEVKKQKRLTFQFGEAKKNSSLHITATQTTDVGTYFCAGPYSGAGSYQLTFGKGTKLSVIP V domain 2: DVKVTQSSRYLVKRTGEKVFLECVQDMDHENMFWYRQDPGLGLRLIYFSYDVKMKEKGDIPEGYSVSREKKERFSLILESASTNQTSMYLCASILSSGYNEQFFGPGTRLTVLE | binds | 
13 | TCR Clone 1 of Donor Y6W in Table 5 (TCR, V domains shown, also called Donor Y6W Clone 1) V domain 1: SLAKTTQPISMDSYEGQEVNITCSHNNIATNDYITWYQQFPSQGPRFIIQGYKTKVTNEVASLFIPADRKSSTLSLPRVSLSDTAVYYCLVVPFGGYNKLIFGAGTRLAVHP V domain 2: SAVISQKPSRDICQRGTSLTIQCQVDSQVTMMFWYRQQPGQSLTLIATANQGSEATYESGFVIDKFPISRPNLTFSTLTVSNMSPEDSSIYLCSVGEGTSGYESYNEQFFGPGTRLTVLE | binds | 
14 | TCR Clone 1 of Donor T3V in Table 3 (TCR, V domains shown, also called Donor T3V Clone 1) V domain 1: DQQVKQNSPSLSVQEGRISILNCDYTNSMFDYFLWYKKYPAEGPTFLISISSIKDKNEDGRFTVFLNKSAKHLSLHIVPSQPGDSAVYFCAASAGGQNFVFGPGTRLSVLP V domain 2: DAGITQSPRHKVTETGTPVTLRCHQTENHRYMYWYRQDPGHGLRLIHYSYGVKDTDKGEVSDGYSVSRSKTEDFLLTLESATSSQTSVYFCAIRRGGSSYNEQFFGPGTRLTVLE |  | binds
15 | TCR Clone 4 of Donor R7Z in Table 3 (TCR, V domains shown, also called Donor R7Z Clone 4) V domain 1: AQSVTQLDSHVSVSEGTPVLLRCNYSSSYSPSLFWYVQHPNKGLQLLLKYTSAATLVKGINGFEAEFKKSETSFHLTKPSAHMSDAAEYFCVVSYLGDTGRRALTFGSGTRLQVQP V domain 2: EPEVTQTPSHQVTQMGQEVILRCVPISNHLYFYWYRQILGQKVEFLVSFYNNEISEKSEIFDDQFSVERPDGSNFTLKIRSTKLEDSAMYFCASSESGSPTGELFFGEGSRLTVLE |  | binds
16 | TCR Clone 3 of Donor T3V in Table 3 (TCR, V domains shown, also called Donor T3V Clone 3) V domain 1: AGQSLEQPSEVTAVEGAIVQINCTYQTSGFYGLSWYQQHDGGAPTFLSYNALDGLEETGRFSSFLSRSDSYGYLLLQELQMKDSASYFCAVPRRNNNARLMFGDGTQLVVKP V domain 2: EAQVTQNPRYLITVTGKKLTVTCSQNMNHEYMSWYRQDPGLGLRQIYYSMNVEVTDKGDVPEGYKVSRKEKRNFPLILESPSPNQTSLYFCASSLNTGMNTEAFFGQGTRLTVVE |  | binds

— patent US20210380657A1 (COUNCIL OF THE QUEENSLAND INSTITUTE OF MEDICAL RESEARCH, published 2021)
